According to patent US7999070B2, “Process for screening of a binding peptide specific for specific RNA and RNA binding peptides therefrom” (priority 2005, dated 2011):
Where no end group is shown, it is not given here.

What was measured:
[1] = Circular dichroism (CD) of the selected peptide, percentage of alpha-helix; format: physicochemical; conditions: for degree of alpha-helices (percentage of alpha-helix, fn): CD at 20° C., 222 nm; for degree of alpha-helices, comparison with Rev peptide (number in parenthesis): relative to Rev peptide (natural RRE RNA binding peptide)
Description: CD was measured at 20° C. by using JASCO model J715 spectropolarimeter. Scanning of 190-260 nm wave length was performed three times with 1 nm of bandwidth, 0.5 nm of datapitch and 100 nm/min speed. The results of the scanning were averaged to obtain CD data. Background spectrum was measured to correct the basic spectrum, and CD signals were converted into mean residue ellipticity [Q]. The percentage of alpha-helix (fn) is calculated by the following formula. [Q]=Qobs[MRW/(101c)]
MRW=mean residue weight (molecular weight is divided by the number of peptide bond), I=length of passway (cm), C=concentration (mg/mL). fn=([Q]222−[Q]coil)/([Q]helix−[Q]coil)
[Q]222=mean residue ellipticity (deg cm2 mol−1) at 222 nm, [Q]helix=ellipticity of authentic helical peptide, [Q]coil=ellipticity of authentic random coil peptide, n=number of amino acid, t=° C.

RRE RNA of HIV-1 = assay: Binding capacity of peptide to RRE RNA, fluorescence anisotropy in competition with CRP probe
Description: 100 ml of RRE RNA solution was prepared at the concentration of […], which stood at 65° C. for 10 minutes. Then, the solution was cooled down slowly at room temperature to induce folding. Peptide solution was prepared respectively at the concentration of […] and 1.0 mM, and both of them were maintained at 0° C. […] CRP (5-carboxytetramethylrhodamine labeled paromomycin) was prepared as a probe. Buffer solution was prepared by mixing 140 mM NaCl, 5 mM KCl, 1 mM MgCl2 and 20 mM HEPES (N-2-Hydroxyethylpiperazine-N′-2-Ethanesulfonic Acid, pH 7.4). Fluorescence anisotropy was measured with AMINCO-Bowman Series Luminescence Spectrometer at 20° C. 10 nM CRP was added to […] of buffer solution, to which RRE RNA was added in order to combine CRP with RNA. At that time, anisotropy was increased. Thereafter, peptide competitively binding to CRP was added and the changes of anisotropy were measured. The binding capacity to RRE RNA of the peptide was determined by the KaleidaGraph as follows; [Peptide]=Kd(Amax−A)/[Kd(A−A0)+1]*[RNA]−Kd(A−A0)/(Amax−A)[CRP]0(A−A0)/(Amax−A0)
[Peptide] indicates the concentration of the peptide, [RNA] indicates the concentration of RNA and [CRP] indicates the concentration of CRP. A is the value of fluorescence anisotropy of a sample, Amax is the value of totally bound tracer and A0 is the value of totally free tracer.

TAR RNA = assay: Binding capacity to TAR RNA by fluorescence anisotropy
Description: (§1) The detailed investigation on the specificity of peptide 16 (SEQ. ID. No 16) was not performed in the present invention, however the binding capacity to TAR RNA and tRNA, general peptides having stem-loop, was tested by fluorescence anisotropy.

tRNA = assay: Binding capacity to tRNA by fluorescence anisotropy
Description: as §1

Row | Substance | degree of alpha-helices (percentage of alpha-helix, fn) [1] | degree of alpha-helices, comparison with Rev peptide (number in parenthesis) [1] | Kd (RRE RNA of HIV-1) [nM] | binding capacity to TAR RNA (TAR RNA) | binding capacity to tRNA (tRNA)
1 | LK*KLLKLLK*KLLK*LKG (LK(dimethyl)KLLKLLK(dimethyl)KLLK(dimethyl)LKG-NH2) [peptide 33, K* is dimethylated lysine] | 7.5 | 1.1 |  |  | 
2 | LKK*LLKLLK*KLLKLKG (LKK(dimethyl)LLKLLK(dimethyl)KLLKLKG-NH2) [peptide 16, K* is dimethylated lysine] | 13 | 2.0 | < 1 | hundreds and tens | hundreds and tens
3 | LKK*LLKLLKKLLK*LKG (LKK(dimethyl)LLKLLKKLLK(dimethyl)LKG-NH2) [peptide 18, K* is dimethylated lysine] | 4.9 | 0.71 |  |  | 
4 | LKK*LLKLLKKLLKLKG (LKK(dimethyl)LLKLLKKLLKLKG-NH2) [peptide 3, K* is dimethylated lysine] | 4.9 | 0.72 |  |  | 
5 | LKKLLKLLK*KLLK*LKG (LKKLLKLLK(dimethyl)KLLK(dimethyl)LKG-NH2) [peptide 25, K* is dimethylated lysine] | 6.6 | 1.0 |  |  | 
6 | LKKLLKLLKKLLK*LKG (LKKLLKLLKKLLK(dimethyl)LKG-NH2) [peptide 7, K* is dimethylated lysine] | 2.7 | 0.40 |  |  | 
7 | LKKLLKLLKKLLKLKG [peptide 1] | 15 | 2.2 |  |  | 
